Experimental data: paper PMC11417211

Experiments:
[1] = target: α-chymotrypsin from bovine pancreas (bovine)
[2] = target: elastase from porcine pancreas (porcine) (UniProt P00772)
[3] = target: Cathepsin G from human leukocytes (human) (UniProt P08311)
Sequence of UniProt P08311 (P08311 21-244): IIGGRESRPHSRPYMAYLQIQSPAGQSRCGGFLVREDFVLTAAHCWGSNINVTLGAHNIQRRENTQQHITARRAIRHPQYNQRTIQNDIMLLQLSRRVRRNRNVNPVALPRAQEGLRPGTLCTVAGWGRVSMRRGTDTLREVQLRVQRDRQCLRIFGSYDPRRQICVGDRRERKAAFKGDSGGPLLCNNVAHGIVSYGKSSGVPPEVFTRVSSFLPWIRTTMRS

Sequence of UniProt P00772 (P00772 27-266): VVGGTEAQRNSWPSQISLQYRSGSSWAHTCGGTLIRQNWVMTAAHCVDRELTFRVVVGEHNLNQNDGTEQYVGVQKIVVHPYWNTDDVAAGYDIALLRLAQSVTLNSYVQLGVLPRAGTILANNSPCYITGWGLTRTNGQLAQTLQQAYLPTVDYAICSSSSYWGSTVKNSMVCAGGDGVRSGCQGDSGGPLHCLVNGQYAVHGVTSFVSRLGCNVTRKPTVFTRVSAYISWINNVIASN

Substance: E. coli expressed Hyalomma anatolicum serpin-1 (eHAMpin-1) (natural protein)
- decrease of the proteolytic activity of the protease (96 nM) after preincubation with 1 μM eHAMpin-1 for 30 min at 37 °C; chromogenic substrate [1]: > 90%
- decrease of the proteolytic activity of the protease (100 nM) after preincubation with 1 μM eHAMpin-1 for 30 min at 37 °C; chromogenic substrate [2]: > 45%
- decrease of the proteolytic activity of the protease (110 nM) after preincubation with 1 μM eHAMpin-1 for 30 min at 37 °C; chromogenic substrate [3]: > 90%
